The target of test [1] is HLA-DR DRB1*0101 (human). The test can be described thus: competition with 125I probe, purified MHC II.
Test [2] addresses HLA-DR DRB3*0101 (human). The test can be described thus: competition with 125I probe, purified MHC II.
Test [3] addresses HLA-DR DRB4*0101 (human). The test can be described thus: competition with 125I probe, purified MHC II.
Test [4] deals with HLA-DR DRB1*0401 (human). As to the kind of experiment: competition with 125I probe, purified MHC II.
In test [5] the target is HLA-DR DRB1*0802 (human). As to the kind of experiment: competition with 125I probe, purified MHC II.
In test [6] the target is DRB1*1101 (human, UniProt P01903 26-216, limits assumed). The test can be described thus: inhibition of 125I-labelled probe peptide binding to purified HLA class II.
Test [7] addresses T1, HLA-DR DRB1*0405 (human).
T1 chain 1: not shown
T1 chain 2: not shown
The test can be described thus: competition with 125I probe, purified MHC II.

In test [8] the target is DRB1*0301 (human, UniProt P01903 26-216, limits assumed). As to the kind of experiment: competition vs 125I probe peptide, purified MHC II.
The target in test [9] is DRB1*0802 (human, UniProt P01903 26-216, limits assumed). The test can be described thus: competition vs 125I probe peptide, purified MHC II.
Test [10] has as its target DRB1*0401 (human, UniProt P01903 26-216, limits assumed). The test can be described thus: competition vs 125I probe peptide, purified MHC II.
Test [11] addresses DRB1*0101 (human, UniProt P01903 26-216, limits assumed). As to the kind of experiment: competition vs 125I probe peptide, purified MHC II.
Test [12] addresses DRB1*1302 (human, UniProt P01903 26-216, limits assumed). As to the kind of experiment: competition vs 125I probe peptide, purified MHC II.
Test [13] addresses DRB4*0101 (human, UniProt P01903 26-216, limits assumed). The test can be described thus: competition vs 125I probe peptide, purified MHC II.
Test [14] concerns the target DRB1*0404 (human, UniProt P01903 26-216, limits assumed). The test can be described thus: competition vs 125I probe peptide, purified MHC II.
Test [15] addresses DRB1*0405 (human, UniProt P01903 26-216, limits assumed). The test can be described thus: competition vs 125I probe peptide, purified MHC II.
The target in test [16] is DRB1*0701 (human, UniProt P01903 26-216, limits assumed). As to the kind of experiment: competition vs 125I probe peptide, purified MHC II.
Test [17] deals with DRB1*0901 (human, UniProt P01903 26-216, limits assumed). As to the kind of experiment: competition vs 125I probe peptide, purified MHC II.
Test [18] addresses DRB1*1101 (human, UniProt P01903 26-216, limits assumed). As to the kind of experiment: competition vs 125I probe peptide, purified MHC II.
The target in test [19] is DRB5*0101 (human, UniProt P01903 26-216, limits assumed). The test can be described thus: competition vs 125I probe peptide, purified MHC II.
Test [20] addresses HLA-DR molecule DRB1*0901 (DR9) (human). As to the kind of experiment: inhibition of radiolabelled probe peptide binding to purified MHC class II.
For test [21], the target named is HLA-DR molecule DRB1*1302 (DR6w19) (human). The description is as above.
Test [22] deals with HLA-DR molecule DRB1*0404 (human). The test can be described thus: competition vs 125I probe, purified HLA.
The target in test [23] is HLA-DR molecule DRB1*1101 (human). The test can be described thus: competition vs 125I probe, purified HLA.
Test [24] concerns the target HLA-DR molecule DRB1*1302 (human). The test can be described thus: competition vs 125I probe, purified HLA.
For test [25], the target named is HLA-DR molecule DRB4*0101 (human). As to the kind of experiment: competition vs 125I probe, purified HLA.
Test [26] concerns the target HLA-DR molecule DRB5*0101 (human). The test can be described thus: competition vs 125I probe, purified HLA.
Test [27] deals with HLA-DR molecule DRB1*0405 (human). The test can be described thus: competition vs 125I probe, purified HLA.
In test [28] the target is HLA-DR molecule DRB1*0802 (human). As to the kind of experiment: competition vs 125I probe, purified HLA.
Test [29] deals with HLA-DR molecule DRB1*0401 (human). The test can be described thus: competition vs 125I probe, purified HLA.
The target of test [30] is HLA-DR molecule DRB1*0101 (human). As to the kind of experiment: competition vs 125I probe, purified HLA.
In test [31] the target is HLA-DR molecule DRB1*0901 (human). The test can be described thus: competition vs 125I probe, purified HLA.
Test [32] addresses HLA-DR molecule DRB1*0701 (human). The test can be described thus: competition vs 125I probe, purified HLA.
Test [33] addresses HLA-DR molecule DRB1*0301 (human). The test can be described thus: competition vs 125I probe, purified HLA.
The target in test [34] is HLA-DR DRB5*0101 (human). The test can be described thus: competition with 125I probe, purified MHC II.
Test [35] concerns the target HLA-DR molecule DRB1*1101 (DR5w11) (human). As to the kind of experiment: inhibition of radiolabelled probe peptide binding to purified MHC class II.
Test [36] addresses HLA-DR molecule DRB5*0101 (DR2w2a) (human). The test is described as above.
Test [37] has as its target DRB1*0901 (human, UniProt P01903 26-216, limits assumed). As to the kind of experiment: inhibition of 125I-labelled probe peptide binding to purified HLA class II.
Test [38] concerns the target DRB1*1302 (human, UniProt P01903 26-216, limits assumed). Described as above.

For the molecule DTPYLDITYHFVMQRLPL [Torp. Ach Rec. 195-212], the IC50 stood at 385 nM in test [1]; 800 nM in test [2]; 261 nM in test [3]; 160 nM in test [4]; 555 nM in [5].
For the molecule DTFRKLFRVYSNFGR [DTFRKLFRVYSNFGR, listing 1 of 2 here], in test [6], the IC50 is 2.8 nM. In other words, the single-digit nanomolar range.
In the case of PLGFFPDHQLDPAFGANSNNPDWDFNP (modifications not checked) [HBV Pre S1 21-47], the IC50 in [7] came to 31 nM.
DTFRKLDRVYSNFLR: the values for the IC50 in [8] and in test [9] were 2.81 µM and 87 nM, respectively.
For DTFRKLFRVYSNFGR [DTFRKLFRVYSNFGR, listing 2 of 2 here], the IC50 in [10] is 50 nM.
Take DTKRKLFRVYSNFLR: the half-maximal inhibitory concentration (IC50) in [11] came to 13 nM; in test [12], 4.9 nM; in test [13], 738 nM; in [8], 6.49 µM.
DTFRKLFRVYSNDLR [DTFRKLFRVYSNDLR, listing 1 of 2 here]: the IC50 in test [14] came to 812 nM; in test [15], 487 nM; in test [16], 817 nM.
With DTPRKLFRVYSNFLR, the IC50 in test [11] was 13 nM; in test [13], 418 nM; in [10], 40 nM; in test [15] it was 6.9 nM; in test [16] it was 87 nM; in test [17] it was 28 nM.
As to DTGRKLFRVYSNFLR, the IC50 stood at 7.5 nM in test [12]; 46 nM in test [10]; 175 nM in [14]; 312 nM in [16]; 53 nM in test [9].
As to DTFRKNFRVYSNFLR, the 50% inhibitory concentration (IC50) in [11] was 62 nM; in test [10] it was 91 nM; in test [14] it was 922 nM; in [18], 5 nM.
Regarding DTFRKQFRVYSNFLR, the IC50 in test [19] was found to be 4.9 nM; in test [14] it was 270 nM; in [16], 3000 nM; in [9], 81 nM.
As for GLRSLTTLLDALGAQ [EPO 101 analog peptide GLRSLTTLLDALGAQ (SEQ ID NO: 193)], the half-maximal inhibitory concentration (IC50) in test [20] worked out at 277 nM; in [21], 953 nM.
As for GLRSLGTLLRALGAQ [EPO 101 analog GLRSLGTLLRALGAQ], the 50% inhibitory concentration (IC50) in test [22] turned out to be 13 nM; in test [23], 1.4 nM; in test [24] it was 739 nM; in test [25], 473 nM; in test [26], 13 nM.
As for GLRSLTTLPRALGAQ [EPO 101 analog GLRSLTTLPRALGAQ], the half-maximal inhibitory concentration (IC50) in [22] amounted to 13 nM; in test [27], 524 nM; in test [28], 7.3 nM; in test [23], 0.62 nM; in test [25], 112 nM; in [26], 2.8 nM.
For GLRSLTTLTRALGAQ [EPO 101 analog GLRSLTTLTRALGAQ], the half-maximal inhibitory concentration (IC50) in test [29] is 394 nM; in [23], 3 nM; in test [26], 13 nM.
Turning to GLRSLTTLLDALGAQ [EPO 101 analog GLRSLTTLLDALGAQ], the half-inhibitory concentration (IC50) in test [22] turned out to be 9.3 nM; in test [28], 240 nM.
With GLRSLTTLLGALGAQ [EPO 101 analog GLRSLTTLLGALGAQ], the concentration for half-maximal inhibition (IC50) in test [30] was found to be 1.3 nM. This counts as single-digit nanomolar.
Turning to GLRSLTTLSRALGAQ [EPO 101 analog GLRSLTTLSRALGAQ], the concentration for half-maximal inhibition (IC50) came to 13 nM in test [22]; 719 nM in test [27]; 2230 nM in [31]; 1.4 nM in test [23]; 440 nM in test [24].
GLRSLTTRLRALGAQ [EPO 101 analog GLRSLTTRLRALGAQ]: the IC50 in test [30] turned out to be 2.4 nM; in [29], 211 nM; in test [32], 4.37 µM.
For GLRSLTTLNRALGAQ [EPO 101 analog GLRSLTTLNRALGAQ], the IC50 is 28 nM in [29]; 337 nM in test [31]; 0.97 nM in test [23]; 167 nM in [25]; 0.89 nM in [26].
Regarding GLRSLTTLARALGAQ [EPO 101 analog GLRSLTTLARALGAQ], the 50% inhibitory concentration (IC50) in test [33] was 234 nM; in [22], 13 nM; in test [28], 7.1 nM; in [23], 0.93 nM; in [24] it was 610 nM.
Consider YLDPLIRGLLARPAKLQV [NP7 (TPO Y535-551)], for which the IC50 in [1] worked out at 1.6 nM; in [3], 341 nM; in test [34], 476 nM; in [4] it was 687 nM.
Consider GLRSLTTRLRALGAQ [EPO 101 analog peptide GLRSLTTRLRALGAQ (SEQ ID NO: 192)], for which the IC50 came to 0.79 nM in [35] and 13 nM in test [36].
DTFRKLFRVYSNDLR [DTFRKLFRVYSNDLR, listing 2 of 2 here]: the IC50 came out at 1640 nM in test [37], 3.6 nM in [6] and 66 nM in test [38].

A word on the IC50: it is the concentration at which inhibition is half-maximal.

Values taken from patent US20070184519A1 (published 2007).
